This is an account of results in article PMC4726241, “Crystal structure and SUMO binding of Slx1-Slx4 complex” (Scientific Reports, 2016).

A word on the Kd: it is the constant that tells how readily two partners part at equilibrium.

This assay concerns the target T1, Slx1^RING+CT-Slx4^CCD complex (S. pombe, UniProt Q9P7M3 176-271; Q9P6M0 352-419).
T1 construct: Slx4, Schizosaccharomyces pombe, C-terminal conserved domain, residues 352-419; source: E. coli, co-expressed, purified by a procedure similar to that of Slx1^RING-Slx4^CCD; not shown: His6, N-terminal, cleaved
T1 sequence (looked up) 1: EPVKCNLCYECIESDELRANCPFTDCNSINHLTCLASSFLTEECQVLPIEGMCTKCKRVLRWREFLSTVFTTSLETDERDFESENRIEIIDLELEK
T1 sequence (looked up) 2: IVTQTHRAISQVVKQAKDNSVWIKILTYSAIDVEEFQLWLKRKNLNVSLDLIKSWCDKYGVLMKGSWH
In words: ITC; 2.37 mM Pmt3 injected into 120 μM complex in the cell; 25 °C; 20 mM sodium phosphate pH 6.8, 100 mM NaCl; three repeats. Particulars: both partners purified. Background: In ITC the heat of successive injections is recorded.

B1: mature Pmt3 (S. pombe SUMO), residues 1-111 (natural protein, UniProt O13351 1-111, looked up)
chain: MSESPSANISDADKSAITPTTGDTSQQDVKPSTEHINLKVVGQDNNEVFFKIKKTTEFSKLMKIYCARQGKSMNSLRFLVDGERIRPDQTPAELDMEDGDQIEAVLEQLGG
notes: Pmt3 (SUMO), Schizosaccharomyces pombe, mature form, residues 1-111; Uniformly 15N-labelled for the NMR titrations; source: E. coli, purified by a procedure similar to that of the complex
On to B1, for which the Kd was found to be 78.3 ± 9.9 µM.
